± gives the half width of the 95% confidence interval.
Assays:
[1] = folding stability dG unfold from chymotrypsin proteolysis; higher = more stable
In short: (§1)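 How resistant each design was to proteolysis was captured as K50, inferred by Bayesian fitting of sequencing counts. Unfolding free energy was then derived relative to a sequence-predicted unfolded-state K50 and a shared folded-state K50, per protease or combined. Digestion used trypsin and chymotrypsin at 11 threefold-diluted concentrations plus a no-protease condition, on mini-proteins under 80 residues without cysteine in a PA-tagged cDNA display construct. Designs were kept only when AlphaFold2 dimer inter-PAE was above 15.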

[2] = folding stability dG unfold (combined trypsin and chymotrypsin); higher = more stable
In short: as §1

[3] = folding stability dG unfold from trypsin proteolysis; higher = more stable
In short: as §1

Row | Sequence | folding stability dG unfold [1] | folding stability dG unfold [2] | folding stability dG unfold [3]
1 | SAGGSAMPIELDLVIEIPIDAHPDQTVEDLVEEIAERIRRLLPPDTVVELRVHLHPELGVALADVSSAGGSA [r15_739_TrMRF] | 0.117 ± 0.087 kcal/mol | 0.988 ± 0.081 kcal/mol | 1.56 ± 0.039 kcal/mol
2 | SAGGSAMPKFYLDENGNPVYELPEEPTINTPLKIGIFDEENNPAIEIEIPGSTPLEEIIQKIKDAASAGGSA [r15_309_TrMRF] | 0.483 ± 0.14 kcal/mol | 0.677 ± 0.2 kcal/mol | 0.674 ± 0.065 kcal/mol
3 | SAGGSAMPPGEPIGSFSFPFNNGGNLMISAYPGGEIKISWWGPDGRPHEHEFPVKVKPPPPEDEGKSAGGSA [r15_478_TrROS] | 1.64 ± 0.07 kcal/mol | 1.6 ± 0.19 kcal/mol | 1.33 ± 0.053 kcal/mol
4 | SAGGSAMPPNMKKVPISIHIPAENYKRDPDGKWKFTADELARHIQRGFRQRFGMPIKKIDVHVHPPSAGGSA [r15_415_TrROS] | 0.00448 ± 0.31 kcal/mol | -0.0271 ± 0.21 kcal/mol | -0.000463 ± 0.31 kcal/mol
5 | SAGGSAMRMERIKLPDGKDITIMRHPNEPRQYQLFFPGGRSISVNFPSPEEAIDHALEWIKNGKPFSAGGSA [r15_38_TrROS] | 0.764 ± 0.13 kcal/mol | 0.78 ± 0.097 kcal/mol | 0.609 ± 0.12 kcal/mol
6 | SAGGSAMSIPLEELIEYVKKPGYKITEKKLPNGTLEITITNPKTGKTTKVTVYPPPTFSVEIKPDPSAGGSA [r15_442_JUSTAS] | 0.876 ± 0.12 kcal/mol | 1.07 ± 0.091 kcal/mol | 1.28 ± 0.034 kcal/mol
7 | SAGGSAMSKDVLFENGARITKFFPGKNYVIIETSPENPELLKELGITVIKEGPNRIIVPAKDFLDESAGGSA [r15_984_TrMRF] | -0.821 ± 0.78 kcal/mol | -0.864 ± 0.8 kcal/mol | -1.28 ± 0.74 kcal/mol
8 | SAGGSAMSLSDIKDVDVYRNPNGWYTAKLKIKDPNNGKDKEVNIHVPPGQTPEKAKNIAREILKELSAGGSA [r15_181_TrROS] | 1.43 ± 0.11 kcal/mol | 1.14 ± 0.086 kcal/mol | 0.606 ± 0.03 kcal/mol
9 | SAGGSAMSVDPVGERTTITILYKDKPVTVPTGPLEEVEREVAAVLEEIEAKTGRKISPDTEVSFVPSAGGSA [r15_496_JUSTAS] | 0.595 ± 0.17 kcal/mol | 0.318 ± 0.16 kcal/mol | -0.283 ± 0.3 kcal/mol
10 | SAGGSAMTAEELARKLFPGAEVEVEVRLERNEDGSLSLRVEVRVRAAPPPEEEEVEEPEEVEEEEESAGGSA [r15_417_TrROS_Hall] | 1.99 ± 0.052 kcal/mol | 2.2 ± 0.28 kcal/mol | 2.78 ± 0.16 kcal/mol
11 | SAGGSAMTAEELKGMKVKITLKNGKKIEAKIKKVEVINGEIYIEIDGKKIKLKKNEKYKIEIVEKKSAGGSA [r15_355_TrROS_Hall] | 2.22 ± 0.067 kcal/mol | 2.06 ± 0.16 kcal/mol | 1.84 ± 0.093 kcal/mol
12 | SAGGSAMTIEIEAPVPAGVEVDATALFVTPDGYLYLAEVRSVGPGWARITIPVYRFDDNLDDPDFLSAGGSA [r15_909_TrMRF] | 2.19 ± 0.042 kcal/mol | 2.17 ± 0.051 kcal/mol | 2.04 ± 0.045 kcal/mol
13 | SAGGSAMTITEDGTLTLEIKVPEDAPEATVKVTVLTDGKTLGEADPATGKVTLKVPPDVEVKVEVASAGGSA [r15_180_TrMRF] | 1.87 ± 0.045 kcal/mol | 1.69 ± 0.13 kcal/mol | 1.09 ± 0.074 kcal/mol
14 | SAGGSAMTITVTEETDPNTDRKTTTVSLSPGVSEEVLEELKAEAEKKGAKLTVYPEEGVVTVVTPESAGGSA [r15_542_JUSTAS] | 0.311 ± 0.065 kcal/mol | 0.224 ± 0.17 kcal/mol | 0.0631 ± 0.052 kcal/mol
15 | SAGGSAMTITVTLTFKSEEEALAAIRELAEALGLEIESVEIRYDPETEEVTVTATIRLPPPPPELLSAGGSA [r15_254_TrROS_Hall] | 2.62 ± 0.033 kcal/mol | 2.75 ± 0.11 kcal/mol | 2.73 ± 0.16 kcal/mol
16 | SAGGSAMTKEEAKEYAEKRVKEEHPGWTVLGVEVTELPGKEVLTKVTVKPPENPDKTLEFEFKFPLSAGGSA [r15_627_JUSTAS] | 2.61 ± 0.035 kcal/mol | 2.54 ± 0.072 kcal/mol | 2.34 ± 0.1 kcal/mol

Row | Sequence | folding stability dG unfold [1] | folding stability dG unfold [2] | folding stability dG unfold [3]
17 | SAGGSAMTPEEARARAEAIAEELAAEARAAGRAAEVTVEVTELPPELYRFTITFPGRTREVLLPVESAGGSA [r15_432_JUSTAS] | -0.262 ± 0.15 kcal/mol | -0.16 ± 0.13 kcal/mol | -0.18 ± 0.18 kcal/mol
18 | SAGGSAMTPEELANVTVEVVTTTEPASPDLTLPDGTRLPPSTTVTTTTEVVVLPGGELLGTRVTVASAGGSA [r15_12_JUSTAS] | 1.03 ± 0.023 kcal/mol | 0.644 ± 0.043 kcal/mol | -0.375 ± 0.051 kcal/mol
19 | SAGGSAMTTTTSTDPATNKTYVTVTFPKDEALVEEVKEELKKKGIKEIKVYEFPENDLVRVEITVGSAGGSA [r2_358_JUSTAS] | 0.767 ± 0.13 kcal/mol | 0.685 ± 0.14 kcal/mol | 0.452 ± 0.098 kcal/mol
20 | SAGGSAMTVKVRLRVRRRVFNEDGELVAEEELELEVEVEVRPPPPPPPPPLTAEELAEKLGLEPEDSAGGSA [r15_572_TrROS_Hall] | 3.37 ± 0.074 kcal/mol | 3.19 ± 0.39 kcal/mol | 2.52 ± 0.093 kcal/mol
21 | SAGGSAMTVTTLPDGSTVIHLPSGTTITITTAPDGTKPITITPPDGVPTTFPASVSLEDAIKAALSSAGGSA [r15_371_JUSTAS] | 2.67 ± 0.034 kcal/mol | 3.1 ± 0.032 kcal/mol | 3.58 ± 0.044 kcal/mol
22 | SAGGSAMVETKTFEFEFEFEFENPDGEPATVTVPVTVEVPVLVPVAAPGPPGANGPEKELEELEKESAGGSA [r15_728_TrMRF] | 0.641 ± 0.065 kcal/mol | 0.782 ± 0.13 kcal/mol | 1.05 ± 0.096 kcal/mol
23 | SAGGSAMVMITIKIKFPGNEVEINMPAEDLDELLSHPELGDNFEITEIEVMPIPPPPVDPEQAEEKSAGGSA [r15_460_TrROS] | 0.885 ± 0.11 kcal/mol | 1.03 ± 0.24 kcal/mol | 1.21 ± 0.15 kcal/mol
24 | SAGGSAMVTPEERVEAALAYIRGKYGFPLSATPAQLREAGLPVRVELTVTDADGRPLATVTLEIPGSAGGSA [r15_391_TrMRF] | 1.78 ± 0.089 kcal/mol | 1.65 ± 0.07 kcal/mol | 1.39 ± 0.037 kcal/mol
25 | SAGGSAMVTVTRYPDGTYVVEATGRGDSRTFTLDLPLEEIKEVLEKEGIKIDKIEVKPAPVDPAKVSAGGSA [r15_576_JUSTAS] | 1.5 ± 0.034 kcal/mol | 1.4 ± 0.05 kcal/mol | 1.268 ± 0.012 kcal/mol
26 | SAGGSAMVVTVPASSLTPESIRALARENPGPVELVFPEEGRRVTVEVRGDGVVRVEEHPLDPAELASAGGSA [r15_751_JUSTAS] | -0.536 ± 0.1 kcal/mol | -0.621 ± 0.083 kcal/mol | -1.07 ± 0.19 kcal/mol
27 | SAGGSAMYEVTEEKDPNSDYTTVTITFPNGATVTITYNPKTNTITADVDPAVDPEVAAAAAKAVLSSAGGSA [r15_511_JUSTAS] | 2.39 ± 0.028 kcal/mol | 2.23 ± 0.071 kcal/mol | 1.92 ± 0.067 kcal/mol
28 | SAGGSANNPKPRIIEIPIQFDWPPGDPQQMRNLAETIADEFSDPGYRVEIDEFTPDYFMFNIKIEWSAGGSA [r15_563_TrROS] | 2.937 ± 0.025 kcal/mol | 2.72 ± 0.12 kcal/mol | 2.13 ± 0.1 kcal/mol
29 | SAGGSAPDNKPKPVVREVEFWIMIPFKSAEQAKEIVEELMKFFGGLKVEILEVHPDGYAMIKITIYSAGGSA [r15_387_TrROS] | 5.38 ± 0.072 kcal/mol | 5.15 ± 0.11 kcal/mol | 3.68 ± 0.13 kcal/mol
30 | SAGGSAPEPVEFTLGHPDGVPYRVTLTRLPDTDLYLVTVEFPGPEVTFTGVAPLEVLENIPGLTPVSAGGSA [r15_622_TrMRF] | 1.88 ± 0.09 kcal/mol | 1.72 ± 0.068 kcal/mol | 1.53 ± 0.035 kcal/mol
31 | SAGGSAPESVKPPVVVVTLVLEFPDGRKLTIPVAHEELAEALEVALALPLALEHDTKLVKVEKANVSAGGSA [r15_140_TrMRF] | 0.736 ± 0.16 kcal/mol | 0.558 ± 0.15 kcal/mol | 0.265 ± 0.12 kcal/mol

— the supplement of paper PMC12764529
